One assay concerns the target MLA10-cLUC (barley) (UniProt Q6WWJ4).

With AVRA10-nLUC (natural protein), in the assay with MLA22LRR10-cLUC (barley), the reduction of relative LUC activity (proxy for cell death) in barley protoplasts co-expressing AVRa10 and Mla22Lrr10, against the empty vector (% reduction of relative LUC activity) is 40. Besides, the LUC activity (proxy for cell viability) in barley protoplasts co-expressing Mla10 and AVRa10, against Mla10 with AVRa22 (% lower LUC activity) with MLA10-cLUC (barley) amounted to 50.
